Six molecules from patent US20140087995A1 (published 2014) can be followed below.

The target of assay [1] is T1, human calcitonin receptor (human, UniProt P30988 25-474).
T1 construct: whole, on cells; also called hCTR; hCT
T1 sequence (looked up): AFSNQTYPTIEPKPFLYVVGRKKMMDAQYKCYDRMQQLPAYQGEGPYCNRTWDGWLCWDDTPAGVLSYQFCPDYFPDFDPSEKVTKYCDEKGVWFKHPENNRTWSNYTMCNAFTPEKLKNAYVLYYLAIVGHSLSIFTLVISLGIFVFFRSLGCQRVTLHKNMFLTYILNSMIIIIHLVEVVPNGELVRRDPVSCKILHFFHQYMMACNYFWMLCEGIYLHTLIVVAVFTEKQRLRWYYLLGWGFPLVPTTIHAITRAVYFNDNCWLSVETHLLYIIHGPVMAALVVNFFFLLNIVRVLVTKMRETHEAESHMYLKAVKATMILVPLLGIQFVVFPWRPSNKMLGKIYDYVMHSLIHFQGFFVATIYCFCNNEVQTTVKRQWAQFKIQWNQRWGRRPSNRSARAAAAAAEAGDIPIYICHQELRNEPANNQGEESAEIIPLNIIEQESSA
The assay is described as follows: ratio of IC50 at human calcitonin receptor to IC50 at human amylin receptor (SPA competition assays). The method in brief: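 Competition binding by SPA uses membrane preparations (35 ng/μL final) in pH 7.4 Hepes buffer with 1 mM CaCl2 and 5 mM MgCl₂. Incubation lasts 120 min at 25° C, and IC₅₀ comes from one-site fitting.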

Assay [2] has as its target T1, human calcitonin receptor. The assay is described as follows: SPA radioligand competition (125I-calcitonin), membranes of BHK cells with human calcitonin receptor. The essentials: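 BHK hCTR membranes 35 ng/μL + SPA beads 0.05 mg/well; buffer 50 mM Hepes pH 7.4, 1 mM CaCl2, 5 mM MgCl₂, 0.1% OA, 0.02% Tween20. 120 min, 25° C., shaking. Scintillation count; IC50 by one-site binding competition.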
A general note: Displacement assays read how much labelled ligand stays bound in the presence of the test substance.

Numbered stars: 1 amine (or outer) side, 2 acyl side, 3 side chain; on linkers, the order of the positions; unused ones are H or OH. Bridge positions count the residues as written; N and C are the ends. Side chains are listed from the residue outwards. Ends that are not written are not given here. * marks the point of attachment. C20 diacid = O=C(O)CCCCCCCCCCCCCCCCCCC(=O)*; γGlu = O=C(O)[C@H](CCC(=O)[*:2])N[*:1]

B1: N^ε1-[(4S)-4-carboxy-4-[[(4S)-4-carboxy-4-(19-carboxynonadecanoylamino)butanoyl]amino]butanoyl]-[Glu14,Arg17,Pro21,Pro27,His34]-h-amylin (peptide)
peptide: K([γGlu-γGlu-C20 diacid])CNTATCATQRLAEFLRHSSPNFGAIPSSTNVGHNTY-NH2
modifications: disulfide 2-7; N-terminus assumed
SMILES: CC[C@H](C)[C@H](NC(=O)[C@H](C)NC(=O)CNC(=O)[C@H](Cc1ccccc1)NC(=O)[C@H](CC(N)=O)NC(=O)[C@@H]1CCCN1C(=O)[C@H](CO)NC(=O)[C@H](CO)NC(=O)[C@H](Cc1c[nH]cn1)NC(=O)[C@H](CCCNC(=N)N)NC(=O)[C@H](CC(C)C)NC(=O)[C@H](Cc1ccccc1)NC(=O)[C@H](CCC(=O)O)NC(=O)[C@H](C)NC(=O)[C@H](CC(C)C)NC(=O)[C@H](CCCNC(=N)N)NC(=O)[C@H](CCC(N)=O)NC(=O)[C@@H](NC(=O)[C@H](C)NC(=O)[C@@H]1CSSC[C@H](NC(=O)[C@@H](N)CCCCNC(=O)CC[C@H](NC(=O)CC[C@H](NC(=O)CCCCCCCCCCCCCCCCCCC(=O)O)C(=O)O)C(=O)O)C(=O)N[C@@H](CC(N)=O)C(=O)N[C@@H]([C@@H](C)O)C(=O)N[C@@H](C)C(=O)N[C@@H]([C@@H](C)O)C(=O)N1)[C@@H](C)O)C(=O)N1CCC[C@H]1C(=O)N[C@@H](CO)C(=O)N[C@@H](CO)C(=O)N[C@H](C(=O)N[C@@H](CC(N)=O)C(=O)N[C@H](C(=O)NCC(=O)N[C@@H](Cc1c[nH]cn1)C(=O)N[C@@H](CC(N)=O)C(=O)N[C@H](C(=O)N[C@@H](Cc1ccc(O)cc1)C(N)=O)[C@@H](C)O)C(C)C)[C@@H](C)O
notes: also called compound 87
Turning to B1, the “Ratio hCT/hAmylin binding” value in assay [1] worked out at 35.6. In addition, the IC50 in assay [2] was determined as 22.5 nM.

B2: N^ε1-[(4S)-4-carboxy-4-[[(4S)-4-carboxy-4-(19-carboxynonadecanoylamino)butanoyl]amino]butanoyl]-[His14,Arg17,Pro21,Pro27]-h-amylin (peptide)
peptide: K([γGlu-γGlu-C20 diacid])CNTATCATQRLAHFLRHSSPNFGAIPSSTNVGSNTY-NH2
modifications: disulfide 2-7; N-terminus assumed
SMILES: CC[C@H](C)[C@H](NC(=O)[C@H](C)NC(=O)CNC(=O)[C@H](Cc1ccccc1)NC(=O)[C@H](CC(N)=O)NC(=O)[C@@H]1CCCN1C(=O)[C@H](CO)NC(=O)[C@H](CO)NC(=O)[C@H](Cc1c[nH]cn1)NC(=O)[C@H](CCCNC(=N)N)NC(=O)[C@H](CC(C)C)NC(=O)[C@H](Cc1ccccc1)NC(=O)[C@H](Cc1c[nH]cn1)NC(=O)[C@H](C)NC(=O)[C@H](CC(C)C)NC(=O)[C@H](CCCNC(=N)N)NC(=O)[C@H](CCC(N)=O)NC(=O)[C@@H](NC(=O)[C@H](C)NC(=O)[C@@H]1CSSC[C@H](NC(=O)[C@@H](N)CCCCNC(=O)CC[C@H](NC(=O)CC[C@H](NC(=O)CCCCCCCCCCCCCCCCCCC(=O)O)C(=O)O)C(=O)O)C(=O)N[C@@H](CC(N)=O)C(=O)N[C@@H]([C@@H](C)O)C(=O)N[C@@H](C)C(=O)N[C@@H]([C@@H](C)O)C(=O)N1)[C@@H](C)O)C(=O)N1CCC[C@H]1C(=O)N[C@@H](CO)C(=O)N[C@@H](CO)C(=O)N[C@H](C(=O)N[C@@H](CC(N)=O)C(=O)N[C@H](C(=O)NCC(=O)N[C@@H](CO)C(=O)N[C@@H](CC(N)=O)C(=O)N[C@H](C(=O)N[C@@H](Cc1ccc(O)cc1)C(N)=O)[C@@H](C)O)C(C)C)[C@@H](C)O
notes: also called compound 92
On to B2, for which the “Ratio hCT/hAmylin binding” value in assay [1] was found to be 145. Besides, the IC50 in assay [2] came to 26 nM.

B3: N^ε1-[(4S)-4-carboxy-4-[[(4S)-4-carboxy-4-(19-carboxynonadecanoylamino)butanoyl]amino]butanoyl]-[Glu14,Arg17,Pro21,Pro27,Pro34,Glu35]-h-amylin (peptide)
peptide: K([γGlu-γGlu-C20 diacid])CNTATCATQRLAEFLRHSSPNFGAIPSSTNVGPETY-NH2
modifications: disulfide 2-7; N-terminus assumed
SMILES: CC[C@H](C)[C@H](NC(=O)[C@H](C)NC(=O)CNC(=O)[C@H](Cc1ccccc1)NC(=O)[C@H](CC(N)=O)NC(=O)[C@@H]1CCCN1C(=O)[C@H](CO)NC(=O)[C@H](CO)NC(=O)[C@H](Cc1c[nH]cn1)NC(=O)[C@H](CCCNC(=N)N)NC(=O)[C@H](CC(C)C)NC(=O)[C@H](Cc1ccccc1)NC(=O)[C@H](CCC(=O)O)NC(=O)[C@H](C)NC(=O)[C@H](CC(C)C)NC(=O)[C@H](CCCNC(=N)N)NC(=O)[C@H](CCC(N)=O)NC(=O)[C@@H](NC(=O)[C@H](C)NC(=O)[C@@H]1CSSC[C@H](NC(=O)[C@@H](N)CCCCNC(=O)CC[C@H](NC(=O)CC[C@H](NC(=O)CCCCCCCCCCCCCCCCCCC(=O)O)C(=O)O)C(=O)O)C(=O)N[C@@H](CC(N)=O)C(=O)N[C@@H]([C@@H](C)O)C(=O)N[C@@H](C)C(=O)N[C@@H]([C@@H](C)O)C(=O)N1)[C@@H](C)O)C(=O)N1CCC[C@H]1C(=O)N[C@@H](CO)C(=O)N[C@@H](CO)C(=O)N[C@H](C(=O)N[C@@H](CC(N)=O)C(=O)N[C@H](C(=O)NCC(=O)N1CCC[C@H]1C(=O)N[C@@H](CCC(=O)O)C(=O)N[C@H](C(=O)N[C@@H](Cc1ccc(O)cc1)C(N)=O)[C@@H](C)O)C(C)C)[C@@H](C)O
Consider B3, for which the “Ratio hCT/hAmylin binding” value in assay [1] amounted to 17.6. The IC50 in assay [2] was 2.13 nM.

Regarding K([γGlu-γGlu-C20 diacid])CNTATCATQRLAEFLRHSSPNFGAILSSTPVGPETY-NH2 (disulfide 2-7), in assay [1], the “Ratio hCT/hAmylin binding” value stood at 22.6. In addition, the IC50 in assay [2] was found to be 1.56 nM.

B4: N^ε1-[(4S)-4-carboxy-4-[[(4S)-4-carboxy-4-(19-carboxynonadecanoylamino)butanoyl]amino]butanoyl]-[Ser14,Arg17,Pro21,Pro27,Pro34,Glu35]-h-amylin (peptide)
peptide: K([γGlu-γGlu-C20 diacid])CNTATCATQRLASFLRHSSPNFGAIPSSTNVGPETY-NH2
modifications: disulfide 2-7; N-terminus assumed
SMILES: CC[C@H](C)[C@H](NC(=O)[C@H](C)NC(=O)CNC(=O)[C@H](Cc1ccccc1)NC(=O)[C@H](CC(N)=O)NC(=O)[C@@H]1CCCN1C(=O)[C@H](CO)NC(=O)[C@H](CO)NC(=O)[C@H](Cc1c[nH]cn1)NC(=O)[C@H](CCCNC(=N)N)NC(=O)[C@H](CC(C)C)NC(=O)[C@H](Cc1ccccc1)NC(=O)[C@H](CO)NC(=O)[C@H](C)NC(=O)[C@H](CC(C)C)NC(=O)[C@H](CCCNC(=N)N)NC(=O)[C@H](CCC(N)=O)NC(=O)[C@@H](NC(=O)[C@H](C)NC(=O)[C@@H]1CSSC[C@H](NC(=O)[C@@H](N)CCCCNC(=O)CC[C@H](NC(=O)CC[C@H](NC(=O)CCCCCCCCCCCCCCCCCCC(=O)O)C(=O)O)C(=O)O)C(=O)N[C@@H](CC(N)=O)C(=O)N[C@@H]([C@@H](C)O)C(=O)N[C@@H](C)C(=O)N[C@@H]([C@@H](C)O)C(=O)N1)[C@@H](C)O)C(=O)N1CCC[C@H]1C(=O)N[C@@H](CO)C(=O)N[C@@H](CO)C(=O)N[C@H](C(=O)N[C@@H](CC(N)=O)C(=O)N[C@H](C(=O)NCC(=O)N1CCC[C@H]1C(=O)N[C@@H](CCC(=O)O)C(=O)N[C@H](C(=O)N[C@@H](Cc1ccc(O)cc1)C(N)=O)[C@@H](C)O)C(C)C)[C@@H](C)O
notes: also called compound 120
Regarding B4, the “Ratio hCT/hAmylin binding” value in assay [1] is 45.3. Moreover, the IC50 in assay [2] was 3.44 nM.

B5: N^ε1-[(4S)-4-carboxy-4-[[(4S)-4-carboxy-4-(19-carboxynonadecanoylamino)butanoyl]amino]butanoyl]-[Glu14,Arg17,Pro21,Pro27,Pro34,Arg35]-h-amylin (peptide)
peptide: K([γGlu-γGlu-C20 diacid])CNTATCATQRLAEFLRHSSPNFGAIPSSTNVGPRTY-NH2
modifications: disulfide 2-7; N-terminus assumed
SMILES: CC[C@H](C)[C@H](NC(=O)[C@H](C)NC(=O)CNC(=O)[C@H](Cc1ccccc1)NC(=O)[C@H](CC(N)=O)NC(=O)[C@@H]1CCCN1C(=O)[C@H](CO)NC(=O)[C@H](CO)NC(=O)[C@H](Cc1c[nH]cn1)NC(=O)[C@H](CCCNC(=N)N)NC(=O)[C@H](CC(C)C)NC(=O)[C@H](Cc1ccccc1)NC(=O)[C@H](CCC(=O)O)NC(=O)[C@H](C)NC(=O)[C@H](CC(C)C)NC(=O)[C@H](CCCNC(=N)N)NC(=O)[C@H](CCC(N)=O)NC(=O)[C@@H](NC(=O)[C@H](C)NC(=O)[C@@H]1CSSC[C@H](NC(=O)[C@@H](N)CCCCNC(=O)CC[C@H](NC(=O)CC[C@H](NC(=O)CCCCCCCCCCCCCCCCCCC(=O)O)C(=O)O)C(=O)O)C(=O)N[C@@H](CC(N)=O)C(=O)N[C@@H]([C@@H](C)O)C(=O)N[C@@H](C)C(=O)N[C@@H]([C@@H](C)O)C(=O)N1)[C@@H](C)O)C(=O)N1CCC[C@H]1C(=O)N[C@@H](CO)C(=O)N[C@@H](CO)C(=O)N[C@H](C(=O)N[C@@H](CC(N)=O)C(=O)N[C@H](C(=O)NCC(=O)N1CCC[C@H]1C(=O)N[C@@H](CCCNC(=N)N)C(=O)N[C@H](C(=O)N[C@@H](Cc1ccc(O)cc1)C(N)=O)[C@@H](C)O)C(C)C)[C@@H](C)O
notes: also called compound 110
As for B5, the “Ratio hCT/hAmylin binding” value in assay [1] stood at 53.6. Also, the IC50 in assay [2] amounted to 17.5 nM.

What is called IC50 is the concentration at which inhibition is half-maximal.
